# Numbering of substitutions follows the chain as printed. In names and notes the source's numbering stands.
# B1: Pseudomonas fluorescens esterase variant p2 (T3C) (enzyme)
# chain: SCFVAKDGTQIYFKDWGSGKPVLFSHGWLLDADMWEYQMEYLSSRGYRTIAFDRRGFGRSDQPWTGNDYDTFADDIAQLIEHLDLKEVTLVGFSMGGGDVARYIARHGSARVAGLVLLGAVTPLFGQKPDYPQGVPLDVFARFKTELLKDRAQFISDFNAPFYGINKGQVVSQGVQTQTLQIALLASLKATVDCVTAFAETDFRPDMAKIDVPTLVIHGDGDQIVPFETTGKVAAELIKGAELKVYKDAPHGFAVTHAQQLNEDLLAFLKR
# B2: Pseudomonas fluorescens esterase variant p4 (T3C and Q174C) (enzyme)
# chain: B1 chain with Q173C
# B3: Pseudomonas fluorescens esterase variant p3 (Q174C) (enzyme)
# chain: B1 chain with C2T, Q173C
# Target: the molecule itself
# Test: cross-linking
row,Protein,stoichiometry N
1,B1,3
2,B2,3
3,B3,3

# Reference: publication PMC10857811 (Chem, 2024)
